Assays:
[1] = biological target: Grb2 SH2 (UniProt P62993); assay: SH2 binding enrichment of the phosphorylated peptide, bacterial display (enrichment ratio); higher = better substrate or ligand; peptides without Tyr show the background
[2] = biological target: c-Src SH2; assay: as above
[3] = biological target: SHP2-C SH2; assay: as above
[4] = biological target: Hck (UniProt P08631); assay: phosphorylation enrichment, bacterial display (enrichment ratio); higher = better substrate or ligand; peptides without Tyr show the background
Hck, sequence (P08631 whole entry, looked up): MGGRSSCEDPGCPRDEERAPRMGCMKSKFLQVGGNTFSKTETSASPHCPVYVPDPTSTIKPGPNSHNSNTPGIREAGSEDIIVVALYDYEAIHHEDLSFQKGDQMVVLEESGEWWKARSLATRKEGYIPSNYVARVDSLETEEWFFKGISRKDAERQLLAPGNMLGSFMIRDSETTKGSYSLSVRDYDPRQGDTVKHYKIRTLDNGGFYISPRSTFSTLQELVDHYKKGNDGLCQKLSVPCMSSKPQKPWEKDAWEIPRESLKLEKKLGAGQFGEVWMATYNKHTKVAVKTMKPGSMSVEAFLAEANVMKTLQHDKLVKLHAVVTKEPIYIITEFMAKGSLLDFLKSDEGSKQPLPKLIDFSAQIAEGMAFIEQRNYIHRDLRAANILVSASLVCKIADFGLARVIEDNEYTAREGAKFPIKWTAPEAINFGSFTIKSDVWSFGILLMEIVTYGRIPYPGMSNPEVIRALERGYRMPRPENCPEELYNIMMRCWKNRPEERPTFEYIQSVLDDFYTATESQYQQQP

[5] = biological target: MERTK (UniProt Q12866); assay: as above
[6] = tested on: AncSZ; assay: as above
[7] = biological target: Fes (UniProt P07332); assay: as above
[8] = biological target: Fyn (UniProt P06241); assay: as above
Fyn, sequence (P06241 whole entry, looked up): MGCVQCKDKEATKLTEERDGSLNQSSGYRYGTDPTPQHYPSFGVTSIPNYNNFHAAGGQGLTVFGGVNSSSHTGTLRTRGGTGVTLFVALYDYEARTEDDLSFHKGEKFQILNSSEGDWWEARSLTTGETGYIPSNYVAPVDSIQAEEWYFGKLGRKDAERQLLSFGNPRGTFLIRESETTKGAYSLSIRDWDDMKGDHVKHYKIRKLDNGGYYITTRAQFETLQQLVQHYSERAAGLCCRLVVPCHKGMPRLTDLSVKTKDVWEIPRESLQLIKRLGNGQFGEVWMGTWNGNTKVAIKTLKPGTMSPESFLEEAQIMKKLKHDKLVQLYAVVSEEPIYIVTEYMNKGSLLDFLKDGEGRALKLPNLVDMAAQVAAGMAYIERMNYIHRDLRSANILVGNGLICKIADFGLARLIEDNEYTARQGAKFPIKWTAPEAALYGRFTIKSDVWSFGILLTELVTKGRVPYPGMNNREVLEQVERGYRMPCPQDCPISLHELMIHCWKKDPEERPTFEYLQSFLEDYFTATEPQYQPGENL

[9] = biological target: FGFR3 (UniProt P22607); assay: as above
FGFR3, sequence (P22607 whole entry, looked up): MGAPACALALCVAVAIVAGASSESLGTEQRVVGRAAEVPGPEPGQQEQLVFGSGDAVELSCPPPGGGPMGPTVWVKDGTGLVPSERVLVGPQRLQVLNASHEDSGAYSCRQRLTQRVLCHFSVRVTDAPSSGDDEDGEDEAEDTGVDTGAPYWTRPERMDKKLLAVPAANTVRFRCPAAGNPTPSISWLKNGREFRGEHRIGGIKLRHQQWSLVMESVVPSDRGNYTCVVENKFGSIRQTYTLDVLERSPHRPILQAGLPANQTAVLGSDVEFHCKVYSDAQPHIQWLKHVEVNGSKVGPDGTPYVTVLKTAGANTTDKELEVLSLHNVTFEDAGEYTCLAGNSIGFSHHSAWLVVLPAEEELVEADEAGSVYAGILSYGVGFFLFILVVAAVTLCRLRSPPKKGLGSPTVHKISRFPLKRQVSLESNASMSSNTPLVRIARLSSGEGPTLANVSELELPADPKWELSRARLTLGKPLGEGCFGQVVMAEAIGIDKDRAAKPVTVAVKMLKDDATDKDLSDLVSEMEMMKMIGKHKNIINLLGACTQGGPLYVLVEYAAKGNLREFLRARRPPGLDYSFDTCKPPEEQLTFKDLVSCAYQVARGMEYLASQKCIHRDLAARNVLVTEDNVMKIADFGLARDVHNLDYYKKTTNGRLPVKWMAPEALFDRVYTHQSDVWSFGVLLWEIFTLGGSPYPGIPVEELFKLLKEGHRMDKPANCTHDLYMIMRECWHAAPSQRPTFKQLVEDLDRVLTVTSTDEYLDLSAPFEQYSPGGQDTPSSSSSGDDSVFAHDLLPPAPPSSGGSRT

[10] = tested on: Fer (mouse); assay: as above
[11] = biological target: EPHB1 (UniProt P54762); assay: as above
EPHB1, sequence (P54762 whole entry, looked up): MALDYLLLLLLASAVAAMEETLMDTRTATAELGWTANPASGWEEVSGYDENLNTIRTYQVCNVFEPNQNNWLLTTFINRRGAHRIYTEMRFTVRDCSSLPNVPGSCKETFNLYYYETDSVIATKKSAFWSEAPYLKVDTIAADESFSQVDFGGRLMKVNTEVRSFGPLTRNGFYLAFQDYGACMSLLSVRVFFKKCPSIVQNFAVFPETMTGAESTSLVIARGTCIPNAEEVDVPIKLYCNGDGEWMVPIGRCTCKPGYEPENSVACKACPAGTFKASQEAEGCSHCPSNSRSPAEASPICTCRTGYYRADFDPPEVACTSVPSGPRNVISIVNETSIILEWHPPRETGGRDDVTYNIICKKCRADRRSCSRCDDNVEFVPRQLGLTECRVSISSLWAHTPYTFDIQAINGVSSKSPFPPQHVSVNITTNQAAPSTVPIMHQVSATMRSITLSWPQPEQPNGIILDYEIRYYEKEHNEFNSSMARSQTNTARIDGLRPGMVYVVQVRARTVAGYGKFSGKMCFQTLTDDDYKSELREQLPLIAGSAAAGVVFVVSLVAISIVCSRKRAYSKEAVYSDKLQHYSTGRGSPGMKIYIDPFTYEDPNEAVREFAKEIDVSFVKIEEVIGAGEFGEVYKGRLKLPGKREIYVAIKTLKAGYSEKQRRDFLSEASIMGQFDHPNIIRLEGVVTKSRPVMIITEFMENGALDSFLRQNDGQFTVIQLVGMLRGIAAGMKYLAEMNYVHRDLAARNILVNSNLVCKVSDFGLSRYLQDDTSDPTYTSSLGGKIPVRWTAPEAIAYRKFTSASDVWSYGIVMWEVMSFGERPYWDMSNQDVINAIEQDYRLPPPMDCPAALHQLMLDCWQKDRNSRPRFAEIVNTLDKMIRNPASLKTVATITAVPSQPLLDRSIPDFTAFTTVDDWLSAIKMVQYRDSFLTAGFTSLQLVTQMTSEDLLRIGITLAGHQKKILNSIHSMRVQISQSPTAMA

[12] = tested on: c-Src; assay: as above
[13] = tested on: c-Abl (mouse); assay: as above
[14] = biological target: FGFR1 (UniProt P11362); assay: as above
[15] = biological target: Jak2 (UniProt O60674); assay: as above
Jak2, sequence (O60674 whole entry, looked up): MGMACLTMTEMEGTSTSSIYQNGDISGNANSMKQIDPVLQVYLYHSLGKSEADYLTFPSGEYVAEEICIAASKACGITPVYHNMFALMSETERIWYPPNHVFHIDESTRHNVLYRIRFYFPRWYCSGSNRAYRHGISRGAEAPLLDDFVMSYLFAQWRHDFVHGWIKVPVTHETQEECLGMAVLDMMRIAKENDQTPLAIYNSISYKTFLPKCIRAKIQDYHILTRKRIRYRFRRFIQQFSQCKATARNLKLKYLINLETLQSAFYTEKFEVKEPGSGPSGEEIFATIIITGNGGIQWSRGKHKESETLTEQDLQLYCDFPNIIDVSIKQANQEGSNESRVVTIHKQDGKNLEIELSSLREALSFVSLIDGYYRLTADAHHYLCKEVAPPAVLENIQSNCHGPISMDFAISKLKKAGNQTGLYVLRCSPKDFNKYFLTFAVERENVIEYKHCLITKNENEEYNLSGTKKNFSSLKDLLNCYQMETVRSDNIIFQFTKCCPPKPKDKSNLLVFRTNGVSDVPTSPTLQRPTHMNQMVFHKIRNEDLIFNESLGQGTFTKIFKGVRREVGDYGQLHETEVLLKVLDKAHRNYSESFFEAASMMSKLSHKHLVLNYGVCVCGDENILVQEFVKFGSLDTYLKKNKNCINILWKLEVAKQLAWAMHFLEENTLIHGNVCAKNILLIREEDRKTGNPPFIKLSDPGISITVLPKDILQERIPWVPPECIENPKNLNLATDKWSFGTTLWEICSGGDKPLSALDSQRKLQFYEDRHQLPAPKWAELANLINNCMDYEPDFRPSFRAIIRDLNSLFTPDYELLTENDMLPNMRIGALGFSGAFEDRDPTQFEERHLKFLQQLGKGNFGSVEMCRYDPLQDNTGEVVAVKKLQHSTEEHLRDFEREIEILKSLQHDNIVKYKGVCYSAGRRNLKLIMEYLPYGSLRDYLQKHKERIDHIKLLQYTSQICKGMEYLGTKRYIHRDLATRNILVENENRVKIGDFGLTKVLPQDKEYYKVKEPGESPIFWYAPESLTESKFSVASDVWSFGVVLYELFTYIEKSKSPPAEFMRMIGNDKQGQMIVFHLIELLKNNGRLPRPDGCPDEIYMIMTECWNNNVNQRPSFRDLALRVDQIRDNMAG

[16] = biological target: EPHB2 (UniProt P29323); assay: as above
EPHB2, sequence (P29323 whole entry, looked up, the tested form may be a part): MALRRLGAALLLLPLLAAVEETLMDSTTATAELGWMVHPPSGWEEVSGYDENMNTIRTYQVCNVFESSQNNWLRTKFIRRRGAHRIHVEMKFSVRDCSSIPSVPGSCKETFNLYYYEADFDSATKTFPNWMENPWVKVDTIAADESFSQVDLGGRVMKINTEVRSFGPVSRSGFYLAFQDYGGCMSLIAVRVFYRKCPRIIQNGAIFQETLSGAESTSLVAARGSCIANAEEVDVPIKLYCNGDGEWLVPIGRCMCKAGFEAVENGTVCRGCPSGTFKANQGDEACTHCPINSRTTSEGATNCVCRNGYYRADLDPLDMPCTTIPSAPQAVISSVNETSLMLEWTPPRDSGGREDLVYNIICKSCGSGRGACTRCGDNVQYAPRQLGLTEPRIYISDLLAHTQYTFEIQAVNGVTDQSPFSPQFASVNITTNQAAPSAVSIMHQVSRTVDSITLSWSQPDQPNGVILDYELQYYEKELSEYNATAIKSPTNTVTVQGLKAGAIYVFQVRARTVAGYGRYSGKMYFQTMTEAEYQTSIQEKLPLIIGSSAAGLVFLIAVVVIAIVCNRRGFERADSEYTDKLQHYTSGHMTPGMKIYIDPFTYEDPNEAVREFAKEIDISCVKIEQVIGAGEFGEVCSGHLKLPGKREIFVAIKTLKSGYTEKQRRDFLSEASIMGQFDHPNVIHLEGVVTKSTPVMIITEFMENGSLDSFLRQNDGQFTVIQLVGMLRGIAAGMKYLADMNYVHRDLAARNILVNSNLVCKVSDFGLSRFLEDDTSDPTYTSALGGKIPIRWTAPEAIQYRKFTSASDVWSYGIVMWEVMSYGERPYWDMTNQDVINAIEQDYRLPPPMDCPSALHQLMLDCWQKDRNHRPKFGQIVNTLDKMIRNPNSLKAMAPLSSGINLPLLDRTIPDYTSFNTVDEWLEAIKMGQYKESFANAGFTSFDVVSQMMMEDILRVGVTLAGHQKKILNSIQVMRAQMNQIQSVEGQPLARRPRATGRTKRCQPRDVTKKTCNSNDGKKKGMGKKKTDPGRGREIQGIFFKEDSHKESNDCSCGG
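For SH2 binding enrichment of the phosphorylated peptide, bacterial display in this document: peptide library displayed on the E. coli surface as eCPX fusions, selected cells deep-sequenced, score is each peptide's frequency after selection divided by its frequency in the input.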
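For phosphorylation enrichment, bacterial display in this document: 11-residue human phosphosite peptides and single-mutation variants displayed on the E. coli surface, counted by deep sequencing, each peptide's frequency after selection divided by its frequency in the unselected input library; frequency after pTyr selection over input frequency; kinase dosed for 20-30% of maximal phosphorylation in three min.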

| Sequence | SH2 binding enrichment [1] | SH2 binding enrichment [2] | SH2 binding enrichment [3] | phosphorylation enrichment [4] | phosphorylation enrichment [5] | phosphorylation enrichment [6] | phosphorylation enrichment [7] | phosphorylation enrichment [8] | phosphorylation enrichment [9] | phosphorylation enrichment [10] | phosphorylation enrichment [11] | phosphorylation enrichment [12] | phosphorylation enrichment [13] | phosphorylation enrichment [14] | phosphorylation enrichment [15] | phosphorylation enrichment [16] |
| --- | --- | --- | --- | --- | --- | --- | --- | --- | --- | --- | --- | --- | --- | --- | --- | --- |
| SEELHYYVQNH [UQCRC2_Y207_F208Y] | 0.799 | 0.723 | 0.451 | 0.732 | 2.86 | 2.04 | 1.62 | 0.633 | 4.09 | 0.954 | 0.89 | 1.48 | 2.09 | 3.68 | 1.68 | 0.788 |
| SEKIVYGHLDD [ACO2_Y71] | 0.865 | 0.56 | 0.926 | 0.639 | 0.359 | 0.829 | 1 | 0.817 | 0.573 | 0.505 | 0.499 | 0.847 | 0.793 | 0.432 | 0.815 | 0.556 |
| SENAFYLSPHI [COL6A3_Y2827_D2831H] | 0.776 | 0.461 | 0.606 | 0.863 | 0.696 | 1.26 | 0.887 | 0.487 | 0.693 | 0.775 | 0.576 | 0.491 | 1.96 | 0.653 | 3.25 | 0.573 |
| SEPDLYFDPRG [PKP1_Y160_C161Y_YF] | 0.9 | 0.492 | 0.741 | 9.33 | 4.69 | 2.86 | 1.14 | 4.59 | 6.9 | 0.841 | 13.1 | 4.46 | 2.71 | 9.25 | 3.41 | 11.4 |
| SFGESYDNSKS [MAN1B1_Y60_N59S] | 0.928 | 0.437 | 0.568 | 0.482 | 0.502 | 0.813 | 0.953 | 0.466 | 0.595 | 0.433 | 0.474 | 0.508 | 0.747 | 0.493 | 0.939 | 0.508 |
| SGETEYNPTEA [NBEAL2_Y2748] | 0.803 | 0.488 | 0.628 | 0.707 | 0.562 | 1.47 | 1.55 | 0.69 | 0.82 | 0.604 | 0.729 | 0.59 | 1.16 | 0.77 | 1.26 | 0.671 |
| SGFESYGSSSY [RPA2_Y9] | 0.672 | 0.541 | 0.708 | 0.474 | 0.382 | 0.582 | 0.765 | 0.44 | 0.462 | 0.403 | 0.341 | 0.481 | 0.718 | 0.368 | 0.821 | 0.478 |
| SGVSYYINLCQ [IGF2R_Y2025_N2020S] | 0.743 | 0.531 | 0.642 | 0.51 | 0.316 | 1.01 | 1.5 | 0.38 | 0.824 | 1.03 | 0.682 | 0.33 | 0.803 | 0.543 | 1.32 | 0.635 |
| SHSMRYFDTAV [HLA-C_Y31] | 0.716 | 0.51 | 0.467 | 0.424 | 0.497 | 0.57 | 0.586 | 0.416 | 0.521 | 0.384 | 0.42 | 0.367 | 0.436 | 0.471 | 0.492 | 0.329 |
| SILAVYSKDIY [PANK2_Y400_N404I] | 0.897 | 0.726 | 0.903 | 2.48 | 2.91 | 1.07 | 0.924 | 2.43 | 0.713 | 0.45 | 0.745 | 2.84 | 0.537 | 0.518 | 1.04 | 0.788 |
| SILTVYSKDNF [PANK2_Y400_A398T_YF] | 0.838 | 0.466 | 0.73 | 0.548 | 0.454 | 0.814 | 0.894 | 0.516 | 0.627 | 0.481 | 0.549 | 0.6 | 0.456 | 0.572 | 0.907 | 0.514 |
| SKDSAYVTWEP | 0.975 | 0.654 | 0.726 | 1.32 | 1.14 | 0.988 | 0.971 | 1.5 | 1.06 | 1.65 | 0.518 | 1.59 | 0.702 | 1.48 | 0.914 | 0.576 |
| SKHRLYSDLQT [PTCHD1_Y84] | 1.3 | 1.57 | 1.12 | 0.422 | 0.645 | 0.5 | 0.715 | 0.376 | 0.411 | 0.654 | 0.443 | 0.371 | 0.476 | 0.339 | 0.406 | 0.484 |
| SLESAYPEGSQ [TTF1_Y357] | 0.861 | 0.522 | 0.814 | 0.593 | 0.366 | 0.877 | 0.968 | 0.539 | 0.629 | 0.457 | 0.463 | 0.406 | 0.601 | 0.61 | 0.712 | 0.574 |
| SLFNGYVYSGM [NEIL3_Y71_V76M] | 1.06 | 2.6 | 2.05 | 2.72 | 0.548 | 0.844 | 0.994 | 5.64 | 0.659 | 0.581 | 0.653 | 5.4 | 0.625 | 0.585 | 1.15 | 0.579 |
| SLIDMYSEVLA [OPA1_Y268_D273A] | 0.966 | 0.553 | 0.762 | 0.873 | 0.615 | 1.24 | 1.03 | 0.959 | 0.832 | 0.891 | 0.766 | 1.61 | 0.539 | 1.12 | 0.925 | 0.869 |

Reference: the supplement of paper PMC10065799, “High-throughput profiling of sequence recognition by tyrosine kinases and SH2 domains using bacterial peptide display” (eLife, 2023)
